Reference: patent US20230340128A1 (Xencor, published 2023)

Assays:
human mesothelin (MSLN) [1] = target: T1, human mesothelin (MSLN) (human, UniProt Q13421 296-580, limits assumed); assay: BLI (Octet), multiple concentrations, bsAb in 1+1 Fab-scFv-Fc format
T1 construct: Antigen of the Octet KD values

[2] = target: MSLN on OVCAR8 cells (~90K MSLN antigens/cell) (UniProt Q13421 296-598); assay: binding to OVCAR8 cells, MFI APC against mAb concentration
human mesothelin (MSLN) [3] = target: T1, human mesothelin (MSLN); assay: KD quoted in the FIG. 25 legend; Octet (BLI) per FIGS. 20-21
human mesothelin (MSLN) [4] = target: T1, human mesothelin (MSLN); assay: BLI (Octet), multiple concentrations, bsAb in 1+1 Fab-scFv-Fc format; lower table, column 'human MSLN (M)'
human mesothelin (MSLN) [5] = target: T1, human mesothelin (MSLN); assay: label in the legend box: nominal affinity of the MSLN binding domain (paragraph 422 calls such label values KD); method not stated on the sheet
[6] = target: T2, MSLN on OVCAR8 cells (~90K MSLN antigens/cell) (UniProt Q13421 296-598); assay: flow cytometry on OVCAR8 cells, 1 h at 4 C, anti-human-Fc A647 secondary
T2 construct: whole, on cells; Endogenous expression on a cancer cell line
Procedure: In this experiment, 50,000 OVCAR8 cells (˜90K MSLN antigens/cell) were seeded per well in a plate. Anti-human-Fc secondary (A647) was added for 30 min at 4° C., and binding was assessed via FACs. FIG. 39C depicts that the CD28×MSLN bsAbs in neither 1+1-Fab-scFv format nor the 2+1 mAb-scFv format antibodies show any significant off target binding. In this experiment, 50,000 SKOV3 cells (˜9K MSLN antigens/cell) were seeded per well in a plate. Anti-human-Fc secondary (A647) was added for 30 min at 4° C., and binding was assessed via FACs.
In order to assess the binding of MSLN×CD28 bsAbs in different formats, an experiment was conducted in which 50,000 OVCAR8 cells (˜90K MSLN antigens/cell) were seeded per well in a plate. Anti-human-Fc secondary (A647) was added for 30 min at 4° C., and binding was assessed via FACs.

human CD28 = target: T3, human CD28 (human, UniProt P10747 19-152, limits assumed); assay: label in the legend box: nominal affinity of the CD28 binding domain (paragraph 422 calls such label values KD); method not stated on the sheet
T3 construct: also called Cluster of Differentiation 28; Tp44

EC50 (read off the curve) [2] [µg/mL]	Kd (human mesothelin (MSLN) [5]) [nM]	EC50 (read off the curve) [6] [ng/mL]	Kd (human CD28) [nM]	Binder	further results
–	–	–	–	XENP32937 (bispecific antibody) chain 1: QVQLVQSGAEVKKPGASVKVSCKASGYTFTSYWMHWVRQAPGQGLEWMGMIHPNSDNTIYYQKFQGRVTMTVDKSISTAYMELSRLRSDDTAVYYCAIIITPVVPKFDYWGQGTLVTVSSASTKGPSVFPLAPSSKSTSGGTAALGCLVKDYFPEPVTVSWNSGALTSGVHTFPAVLQSSGLYSLSSVVTVPSSSLGTQTYICNVNHKPSDTKVDKKVEPKSCDKTHTCPPCPAPPVAGPSVFLFPPKPKDTLMISRTPEVTCVVVDVKHEDPEVKFNWYVDGVEVHNAKTKPREEEYNSTYRVVSVLTVLHQDWLNGKEYKCKVSNKALPAPIEKTISKAKGQPREPQVYTLPPSREEMTKNQVSLTCDVSGFYPSDIAVEWESDGQPENNYKTTPPVLDSDGSFFLYSKLTVDKSRWEQGDVFSCSVMHEALHNHYTQKSLSLSPGK chain 2: not shown chain 3: DIVMTQSPDSLAVSLGERATINCKASHDVGTSVAWYQQKPGQSPKLLIYWASTRHTGVPDRFTGSGSGTDFTLTISSLQAEDVAVYFCQQYYSYPLTFGAGTKLEIKRTVAAPSVFIFPPSDEQLKSGTASVVCLLNNFYPREAKVQWKVDNALQSGNSQESVTEQDSKDSTYSLSSTLTLSKADYEKHKVYACEVTHQGLSSPVTKSFNRGEC	Kd (human mesothelin (MSLN) [1]): 10.2 nM; koff (human mesothelin (MSLN) [1]): 0.00822 s⁻¹; kon (human mesothelin (MSLN) [1]): 803000 M⁻¹ s⁻¹
~0.04	–	–	–	XENP31717 (bispecific antibody) chain 1: QVQLVQSGAEVKKPGASVKVSCKASGYTFTSYWMHWVRQAPGQGLEWMGMIHPNSDNTIYYEKFQGRVTMTVDKSISTAYMELSRLRSDDTAVYYCAIIITPVVPKFDYWGQGTLVTVSSASTKGPSVFPLAPSSKSTSGGTAALGCLVKDYFPEPVTVSWNSGALTSGVHTFPAVLQSSGLYSLSSVVTVPSSSLGTQTYICNVNHKPSDTKVDKKVEPKSCDKTHTCPPCPAPPVAGPSVFLFPPKPKDTLMISRTPEVTCVVVDVKHEDPEVKFNWYVDGVEVHNAKTKPREEEYNSTYRVVSVLTVLHQDWLNGKEYKCKVSNKALPAPIEKTISKAKGQPREPQVYTLPPSREEMTKNQVSLTCDVSGFYPSDIAVEWESDGQPENNYKTTPPVLDSDGSFFLYSKLTVDKSRWEQGDVFSCSVMHEALHNHYTQKSLSLSPGK chain 2: QVQLVQSGAEVKKPGASVKVSCKASGYTFTSYWMHWVRQAPGQGLEWMGMIHPNSDNTIYYEKFQGRVTMTVDKSISTAYMELSRLRSDDTAVYYCAIIITPVVPKFDYWGQGTLVTVSSASTKGPSVFPLAPSSKSTSGGTAALGCLVKDYFPEPVTVSWNSGALTSGVHTFPAVLQSSGLYSLSSVVTVPSSSLGTQTYICNVNHKPSNTKVDKKVEPKSCGGGGSGGGGSQAVVTQEPSLTVSPGGTVTLTCGSSTGAVTTSNYANWVQQKPGKSPRGLIGGTNKRAPGVPARFSGSLLGGKAALTISGAQPEDEADYYCALWYSNHWVFGGGTKLTVLGKPGSGKPGSGKPGSGKPGSEVQLVESGGGLVQPGGSLRLSCAASGFTFSTYAMNWVRQAPGKGLEWVGRIRSKANNYATYYADSVKGRFTISRDDSKNTLYLQMNSLRAEDTAVYYCVRHGNFGDSYVSWFAYWGQGTLVTVSSGGGGSGGGGSKTHTCPPCPAPPVAGPSVFLFPPKPKDTLMISRTPEVTCVVVDVKHEDPEVKFNWYVDGVEVHNAKTKPREEQYNSTYRVVSVLTVLHQDWLNGKEYKCKVSNKALPAPIEKTISKAKGQPREPQVYTLPPSREQMTKNQVKLTCLVKGFYPSDIAVEWESNGQPENNYKTTPPVLDSDGSFFLYSKLTVDKSRWQQGNVFSCSVMHEALHNHYTQKSLSLSPGK chain 3: DIVMTQSPDSLAVSLGERATINCKASHDVGTSVAWYQQKPGQSPKLLIYWASTRHTGVPDRFTGSGSGTDFTLTISSLQAEDVAVYFCQQYSSYPLTFGAGTKLEIKRTVAAPSVFIFPPSDEQLKSGTASVVCLLNNFYPREAKVQWKVDNALQSGNSQESVTEQDSKDSTYSLSSTLTLSKADYEKHKVYACEVTHQGLSSPVTKSFNRGEC	Kd (human mesothelin (MSLN) [3]): 0.28 nM
~0.07	–	–	–	XENP31697 (bispecific antibody) chain 1: QVQLVQSGAEVKKPGASVKVSCKASGYTFTSYWMHWVRQAPGQGLEWMGMIHPNSDNTIYYEKFQGRVTMTVDKSISTAYMELSRLRSDDTAVYYCAIIITPVVPKFDYWGQGTLVTVSSASTKGPSVFPLAPSSKSTSGGTAALGCLVKDYFPEPVTVSWNSGALTSGVHTFPAVLQSSGLYSLSSVVTVPSSSLGTQTYICNVNHKPSDTKVDKKVEPKSCDKTHTCPPCPAPPVAGPSVFLFPPKPKDTLMISRTPEVTCVVVDVKHEDPEVKFNWYVDGVEVHNAKTKPREEEYNSTYRVVSVLTVLHQDWLNGKEYKCKVSNKALPAPIEKTISKAKGQPREPQVYTLPPSREEMTKNQVSLTCDVSGFYPSDIAVEWESDGQPENNYKTTPPVLDSDGSFFLYSKLTVDKSRWEQGDVFSCSVMHEALHNHYTQKSLSLSPGK chain 2: not shown chain 3: DIVMTQSPDSLAVSLGERATINCKASHDVGTSVAWYQQKPGQSPKLLIYWASTRHTGVPDRFTGSGSGTDFTLTISSLQAEDVAVYFCQQYSSYPLTFGAGTKLEIKRTVAAPSVFIFPPSDEQLKSGTASVVCLLNNFYPREAKVQWKVDNALQSGNSQESVTEQDSKDSTYSLSSTLTLSKADYEKHKVYACEVTHQGLSSPVTKSFNRGEC	Kd (human mesothelin (MSLN) [4]): 0.28 nM
–	0.3	~5	180	XENP44475 (bispecific antibody, also called XENP44475 MSLN (0.3 nM) x CD28 (180 nM) 2+1 Fab2-Fc x scFv-Fc) heavy: QVQLVQSGAEVKKPGASVKVSCKASGYTFTSYWMHWVRQAPGQGLEWMGMIHPNSDNTIYYEKFQGRVTMTVDKSISTAYMELSRLRSDDTAVYYCAIIITPVVPKFDYWGQGTLVTVSSASTKGPSVFPLAPSSKSTSGGTAALGCLVKDYFPEPVTVSWNSGALTSGVHTFPAVLQSSGLYSLSSVVTVPSSSLGTQTYICNVNHKPSDTKVDKKVEPKSCGGGGSGGGGSQVQLVQSGAEVKKPGASVKVSCKASGYTFTSYWMHWVRQAPGQGLEWMGMIHPNSDNTIYYEKFQGRVTMTVDKSISTAYMELSRLRSDDTAVYYCAIIITPVVPKFDYWGQGTLVTVSSASTKGPSVFPLAPSSKSTSGGTAALGCLVKDYFPEPVTVSWNSGALTSGVHTFPAVLQSSGLYSLSSVVTVPSSSLGTQTYICNVNHKPSDTKVDKKVEPKSCDKTHTCPPCPAPPVAGPSVFLFPPKPKDTLMISRTPEVTCVVVDVKHEDPEVKFNWYVDGVEVHNAKTKPREEEYNSTYRVVSVLTVLHQDWLNGKEYKCKVSNKALPAPIEKTISKAKGQPREPQVYTLPPSREEMTKNQVSLTCDVSGFYPSDIAVEWESDGQPENNYKTTPPVLDSDGSFFLYSKLTVDKSRWEQGDVFSCSVLHEALHSHYTQKSLSLSPGK scFv-Fc: not shown light 1: DIVMTQSPDSLAVSLGERATINCKASHDVGTSVAWYQQKPGQSPKLLIYWASTRHTGVPDRFTGSGSGTDFTLTISSLQAEDVAVYFCQQYSSYPLTFGAGTKLEIKRTVAAPSVFIFPPSDEQLKSGTASVVCLLNNFYPREAKVQWKVDNALQSGNSQESVTEQDSKDSTYSLSSTLTLSKADYEKHKVYACEVTHQGLSSPVTKSFNRGEC light 2: DIVMTQSPDSLAVSLGERATINCKASHDVGTSVAWYQQKPGQSPKLLIYWASTRHTGVPDRFTGSGSGTDFTLTISSLQAEDVAVYFCQQYSSYPLTFGAGTKLEIKRTVAAPSVFIFPPSDEQLKSGTASVVCLLNNFYPREAKVQWKVDNALQSGNSQESVTEQDSKDSTYSLSSTLTLSKADYEKHKVYACEVTHQGLSSPVTKSFNRGEC	–
–	0.3	~4	180	XENP44469 (bispecific antibody, also called XENP44469 MSLN (0.3 nM) x CD28 (180 nM) 2+1 Fab2-scFv-Fc) heavy 1: QVQLVQSGAEVKKPGASVKVSCKASGYTFTSYWMHWVRQAPGQGLEWMGMIHPNSDNTIYYEKFQGRVTMTVDKSISTAYMELSRLRSDDTAVYYCAIIITPVVPKFDYWGQGTLVTVSSASTKGPSVFPLAPSSKSTSGGTAALGCLVKDYFPEPVTVSWNSGALTSGVHTFPAVLQSSGLYSLSSVVTVPSSSLGTQTYICNVNHKPSDTKVDKKVEPKSCDKTHTCPPCPAPPVAGPSVFLFPPKPKDTLMISRTPEVTCVVVDVKHEDPEVKFNWYVDGVEVHNAKTKPREEEYNSTYRVVSVLTVLHQDWLNGKEYKCKVSNKALPAPIEKTISKAKGQPREPQVYTLPPSREEMTKNQVSLTCDVSGFYPSDIAVEWESDGQPENNYKTTPPVLDSDGSFFLYSKLTVDKSRWEQGDVFSCSVLHEALHSHYTQKSLSLSPGK heavy 2: not shown light 1: DIVMTQSPDSLAVSLGERATINCKASHDVGTSVAWYQQKPGQSPKLLIYWASTRHTGVPDRFTGSGSGTDFTLTISSLQAEDVAVYFCQQYSSYPLTFGAGTKLEIKRTVAAPSVFIFPPSDEQLKSGTASVVCLLNNFYPREAKVQWKVDNALQSGNSQESVTEQDSKDSTYSLSSTLTLSKADYEKHKVYACEVTHQGLSSPVTKSFNRGEC light 2: DIVMTQSPDSLAVSLGERATINCKASHDVGTSVAWYQQKPGQSPKLLIYWASTRHTGVPDRFTGSGSGTDFTLTISSLQAEDVAVYFCQQYSSYPLTFGAGTKLEIKRTVAAPSVFIFPPSDEQLKSGTASVVCLLNNFYPREAKVQWKVDNALQSGNSQESVTEQDSKDSTYSLSSTLTLSKADYEKHKVYACEVTHQGLSSPVTKSFNRGEC	–
